“And” between values parts separate entries of the source, which are not always exact repeats. Equal entries are not always repeated. One block for each binder: values may come before it.
What was measured:
[1] = target: recombinant murine VEGF164 (mouse) (UniProt Q00731); test: cell-based or functional assay
[2] = target: recombinant rat VEGF164 (rat) (UniProt P16612); test: cell-based or functional assay
[3] = target: T1, recombinant human VEGF165 (human, UniProt P15692 27-191); test: cell-based or functional assay
[4] = target: recombinant murine VEGF164 (mouse) (UniProt Q00731); test: Biacore SPR; ratio to hVEGF165
[5] = target: recombinant rat VEGF164 (rat) (UniProt P16612); test: Biacore SPR; ratio to hVEGF165
[6] = target: T1, recombinant human VEGF165; test: cell-based or functional assay; remark: listed apart in the source
[7] = target: recombinant murine VEGF164 (mouse) (UniProt Q00731); test: Biacore SPR, VEGF immobilized, pH 5
[8] = target: recombinant rat VEGF164 (rat) (UniProt P16612); test: Biacore SPR, VEGF immobilized, pH 5
[9] = target: recombinant murine VEGF164 (mouse) (UniProt Q00731); test: Biacore SPR, pH 7.4 (data not shown)
[10] = target: recombinant rat VEGF164 (rat) (UniProt P16612); test: Biacore SPR, pH 7.4 (data not shown)
[11] = target: T1, recombinant human VEGF165; test: Biacore SPR, VEGF immobilized, pH 5
Target sequence in this assay (P15692 other isoform, or with tags, fused parts or gaps): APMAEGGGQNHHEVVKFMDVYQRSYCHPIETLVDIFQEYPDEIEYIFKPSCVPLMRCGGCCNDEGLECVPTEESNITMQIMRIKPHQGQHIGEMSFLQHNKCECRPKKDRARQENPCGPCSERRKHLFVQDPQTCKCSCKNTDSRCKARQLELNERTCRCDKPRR

[12] = target: recombinant murine VEGF164 (mouse) (UniProt Q00731); test: Biacore SPR, pH 5 (text; Table 8b prints 5.67E-10)
[13] = target: T1, recombinant human VEGF165; test: cell-based or functional assay; remark: listed apart in the source
Target sequence in this assay (P15692 other isoform, or with tags, fused parts or gaps): as above

[14] = target: T1, recombinant human VEGF165; test: Biacore SPR, VEGF immobilized, pH 5; remark: listed apart in the source
Target sequence in this assay (P15692 other isoform, or with tags, fused parts or gaps): as above

[15] = target: T2, recombinant human PLGF (human, UniProt P49763-2 19-149, limits assumed); test: Biacore SPR, PlGF immobilized, pH 5
T2 construct: Negative control; also called PIGF
T2 sequence (looked up): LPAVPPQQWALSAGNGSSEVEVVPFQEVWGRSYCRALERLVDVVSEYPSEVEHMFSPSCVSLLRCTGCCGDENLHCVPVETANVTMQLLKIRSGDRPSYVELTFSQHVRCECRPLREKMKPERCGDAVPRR
Method: (§1) In this example, the Biacore-binding ability of scFvs was tested and the binding affinity was measured using the exemplary surface plasmon resonance method with BIAcore™-T100. The VEGF proteins, tested for binding by these scFv candidates, in this example and later examples include purified Escherichia coli-expressed recombinant human VEGF₁₆₅ (PeproTech EC Ltd.), recombinant human VEGF₁₂₁ (PeproTech EC Ltd.), recombinant human VEGF₁₁₀ (ESBATech AG), recombinant murine VEGF₁₆₄ (PeproTech EC Ltd.), recombinant rat VEGF₁₆₄ (Biovision), recombinant rabbit VEGF₁₁₀ (ESBATech AG), and recombinant human PLGF (PeproTech EC Ltd.). For the surface plasmon resonance experiment, carboxymethylated dextran biosensor chips (CM4, GE Healthcare) were activated with N-ethyl-N′-(3-dimethylaminopropyl) carbodiimide hydrochloride and N-hydroxysuccinimide according to the supplier's instructions. Each of the 6 different VEGF forms, as exemplified above, was coupled to 1 of the 4 different flow cells on a CM4 sensor chip using a standard amine-coupling procedure. […] The 4th flow cell of each chip was treated similarly except no proteins were immobilized prior to blocking, and the flow cell was used as in-line reference. […] Dissociation of the anti-VEGF scFv from the VEGF on the CM4 chip was allowed to proceed for 10 min at 25° C. Sensorgrams were generated for each anti-VEGF scFv sample after in-line reference cell correction followed by buffer sample subtraction. The apparent dissociation rate constant (kd), the apparent association rate constant (kₐ) and the apparent dissociation equilibrium constant (KD) were calculated using one-to-one Langmuir binding model with BIAcore T100 evaluation Software version 1.1.

[16] = target: T1, recombinant human VEGF165; test: Biacore SPR, VEGF immobilized, pH 5; remark: listed apart in the source
Method: as §1
Target sequence in this assay (P15692 other isoform, or with tags, fused parts or gaps): as the sequence (P15692 other isoform, or with tags, fused parts or gaps) above

[17] = target: T3, recombinant human VEGF121 (human, UniProt P15692 27-147); test: Biacore SPR, VEGF immobilized, pH 5
T3 construct: mature; Isoform VEGF121 of the entry; also called hVEGF121
T3 sequence (looked up): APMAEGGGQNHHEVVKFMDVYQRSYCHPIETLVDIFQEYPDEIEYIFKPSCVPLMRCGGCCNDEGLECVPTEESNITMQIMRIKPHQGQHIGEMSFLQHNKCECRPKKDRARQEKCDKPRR
Method: as §1

[18] = target: T4, recombinant human VEGF110 (human, UniProt P15692-4 27-136, limits assumed); test: Biacore SPR, VEGF immobilized, pH 5
T4 construct: Made in house; also called hVEGF110
T4 sequence (looked up): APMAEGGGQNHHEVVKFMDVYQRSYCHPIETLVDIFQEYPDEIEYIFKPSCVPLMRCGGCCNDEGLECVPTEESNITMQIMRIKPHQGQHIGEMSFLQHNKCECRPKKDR
Method: as §1

[19] = target: T1, recombinant human VEGF165; test: Biacore SPR, VEGF immobilized, pH 7.4
Target sequence in this assay (P15692 other isoform, or with tags, fused parts or gaps): as the sequence (P15692 other isoform, or with tags, fused parts or gaps) above

[20] = target: T3, recombinant human VEGF121; test: Biacore SPR (FIG. 3b legend; differs from Table 9)
Method: In this example, the Biacore-binding ability of scFvs was tested and the binding affinity was measured using the exemplary surface plasmon resonance method with BIAcore™-T100. The VEGF proteins, tested for binding by these scFv candidates, in this example and later examples include purified Escherichia coli-expressed recombinant human VEGF₁₆₅ (PeproTech EC Ltd.), recombinant human VEGF₁₂₁ (PeproTech EC Ltd.), recombinant human VEGF₁₁₀ (ESBATech AG), recombinant murine VEGF₁₆₄ (PeproTech EC Ltd.), recombinant rat VEGF₁₆₄ (Biovision), recombinant rabbit VEGF₁₁₀ (ESBATech AG), and recombinant human PLGF (PeproTech EC Ltd.). For the surface plasmon resonance experiment, carboxymethylated dextran biosensor chips (CM4, GE Healthcare) were activated with N-ethyl-N′-(3-dimethylaminopropyl) carbodiimide hydrochloride and N-hydroxysuccinimide according to the supplier's instructions. Each of the 6 different VEGF forms, as exemplified above, was coupled to 1 of the 4 different flow cells on a CM4 sensor chip using a standard amine-coupling procedure. […] The apparent dissociation rate constant (kd), the apparent association rate constant (kₐ) and the apparent dissociation equilibrium constant (KD) were calculated using one-to-one Langmuir binding model with BIAcore T100 evaluation Software version 1.1.

[21] = target: T1, recombinant human VEGF165; test: VEGFR2 competition ELISA: hVEGF165 coated on the plate, scFv pre-incubated with human VEGFR2/Fc chimera, bound VEGFR2/Fc detected with anti-human Fc-HRP, OD 450 nm; half-maximal inhibition
Method: After 30-60 min of incubation at room temperature, the mixtures were transferred to the human VEGF₁₆₅ immobilized plate and incubated for 90 min. […] Optical density at 450 nm (OD 450 nm) was measured using a Sunrise microplate reader (Tecan).

[22] = target: T1, recombinant human VEGF165; test: Biacore SPR (FIG. 4c legend; differs from Table 10)
Method: For the surface plasmon resonance experiment, carboxymethylated dextran biosensor chips (CM4, GE Healthcare) were activated with N-ethyl-N′-(3-dimethylaminopropyl) carbodiimide hydrochloride and N-hydroxysuccinimide according to the supplier's instructions. Each of the 6 different VEGF forms, as exemplified above, was coupled to 1 of the 4 different flow cells on a CM4 sensor chip using a standard amine-coupling procedure. […] The 4th flow cell of each chip was treated similarly except no proteins were immobilized prior to blocking, and the flow cell was used as in-line reference. […] Dissociation of the anti-VEGF scFv from the VEGF on the CM4 chip was allowed to proceed for 10 min at 25° C. Sensorgrams were generated for each anti-VEGF scFv sample after in-line reference cell correction followed by buffer sample subtraction. The apparent dissociation rate constant (kd), the apparent association rate constant (kₐ) and the apparent dissociation equilibrium constant (KD) were calculated using one-to-one Langmuir binding model with BIAcore T100 evaluation Software version 1.1.
The present invention also discloses derivatives originating from the lead anti-VEGF scFv candidates, which are mentioned above.

EC50, HUVEC proliferation induced by mouse VEGF164 [1]: 0.0631 nM
EC50, HUVEC proliferation induced by rat VEGF164 [2]: 0.0697 nM
EC50, HUVEC proliferation induced by hVEGF165 [3]: 0.0552 nM
potency in HUVEC assay relative to Lucentis [3]: ~1.6 fold
relative value KdhVEGF165/KdmVEGF164 [4]: 1.1
relative value kdhVEGF165/kdmVEGF164 [4]: 0.8
relative value KdhVEGF165/KdmVEGF164 (rat block) [5]: 0.8
relative value kdhVEGF165/kdmVEGF164 (rat block) [5]: 0.8
Rel. activity in HUVEC assay (EC50Luc[nM]/EC50test[nM]) hVEGF [6]: 1.6 and 1.4
Kd [7]: 0.567 nM
koff [7]: 0.000657 s⁻¹
kon [7]: 1.14e+06 M⁻¹ s⁻¹
Kd [8]: 0.748 nM
koff [8]: 0.000641 s⁻¹
kon [8]: 858000 M⁻¹ s⁻¹
Kd [9]: 0.0273 nM
Kd [10]: 0.0219 nM
Kd [11]: 0.625 nM
koff [11]: 0.000504 s⁻¹
kon [11]: 806000 M⁻¹ s⁻¹
Kd [12]: 0.576 nM
B1: 578minmax (scFv)
scFv: EIVMTQSPSTLSASVGDRVIITCQASEIIHSWLAWYQQKPGKAPKLLIYLASTLASGVPSRFSGSGSGAEFTLTISSLQPDDFATYYCQNVYLASTNGANFGQGTKLTVLGGGGGSGGGGSGGGGSGGGGSEVQLVESGGGLVQPGGSLRLSCTASGFSLTDYYYMTWVRQAPGKGLEWVGFIDPDDDPYYATWAKGRFTISRDTSKNTVYLQMNSLRAEDTAVYYCAGGDHNSGWGLDIWGQGTLVTVSS
notes: also called ESBA903; 903

EC50 in HUVEC assay (FIG. 8d) [3]: 0.103 nM
Rel. activity in HUVEC assay (EC50Luc[nM]/EC50test[nM]) [13]: 1.48
Rel. activity in HUVEC assay (EC50Luc[nM]/EC50test[nM]) hVEGF [6]: 0.94 and 1 and 1.2
koff [7]: 0.00044 s⁻¹
kon [7]: 1.03e+06 M⁻¹ s⁻¹
koff [8]: 0.000528 s⁻¹
kon [8]: 883000 M⁻¹ s⁻¹
koff [14]: 0.000307 s⁻¹
kon [14]: 700000 M⁻¹ s⁻¹
binding result [15]: no binding
koff [16]: 0.000307 s⁻¹
kon [16]: 700000 M⁻¹ s⁻¹
koff [17]: 0.000558 s⁻¹
kon [17]: 587000 M⁻¹ s⁻¹
koff [18]: 0.000722 s⁻¹
kon [18]: 523000 M⁻¹ s⁻¹
koff [11]: 0.000307 s⁻¹
kon [11]: 700000 M⁻¹ s⁻¹
koff [19]: 3.76e-05 s⁻¹
kon [19]: 1.58e+06 M⁻¹ s⁻¹
Kd [20]: 0.095 nM
EC50 (read off the curve) [21]: ~0.4 nM
B2: 578-max (scFv)
scFv: EIVMTQSPSTLSASVGDRVIITCQASEIIHSWLAWYQQKPGKAPKLLIYLASTLASGVPSRFSGSGSGTQFTLTISSLQPDDFATYYCQNVYLASTNGANFGQGTKLTVLGGGGGSGGGGSGGGGSGGGGSEVQLVESGGGLVQPGGSLRLSCTASGFSLTDYYYMTWVRQAPGKGLEWVGFIDPDDDPYYATWAKGRFTISRDTSKNTVYLQMNSLRAEDTAVYYCAGGDHNSGWGLDIWGQGTLVTVSS
notes: also called EP578max; #821

Kd [11]: 0.2 nM
koff [11]: 0.000169 s⁻¹
kon [11]: 834000 M⁻¹ s⁻¹
kon [22]: 845000 M⁻¹ s⁻¹
B3: 578 wildtype C-His (scFv, not shown: small tags and cut ends)
scFv: DVVMTQTPSSVSAAVGDTVTINCQASEIIHSWLAWYQQKPGQPPKLLIYLASTLASGVPSRFKGSGSGTQFTLTISDLECADAAIYYCQNVYLASTNGANFGGGTEVVVKGGGGSGGGGSGGGGSGGGGSQSVEESGGRLVTPGTPLTLTCTASGFSLTDYYYMTWVRLAPGKGLEYIGFIDPDDDPYYATWAKGRFTISRTSTTVNLKMTSPTTEDTATYFCAGGDHNSGWGLDIWGPGTLVTVSL
notes: Rabbit wild type single chain

From patent US20150274820A1 (ESBATECH AN ALCON BIOMEDICAL RESEARCH UNIT, published 2015)
